Experimental data from the Immune Epitope Database (IEDB).

Tests used:
Assay in all cases: IEDB peptide-MHC binding, purified MHC/competitive/radioactivity; filed as Kd, often an IC50 or EC50 that approximates it; ≥ and ≤ were set here for values at or beyond the usual limits of such assays
[1] = target: HLA-A*02:02
[2] = target: HLA-A*02:03
[3] = target: HLA-A*02:06
[4] = source organism: Vaccinia virus WR
[5] = source organism: SARS coronavirus Tor2
[6] = source organism: Dengue virus 1 Brazil/97-11/1997
[7] = source organism: Dengue virus 2 Jamaica/1409/1983
[8] = source organism: Dengue virus 4 Philippines/H241/1956
[9] = source organism: Lymphocytic choriomeningitis virus (strain Armstrong)
[10] = source organism: Dengue virus 3 Martinique/1243/1999

AAITLVVISV
Kd [1, 4]: 501 nM | Kd [2, 4]: 246 nM | Kd [3, 4]: 26.8 nM

ALAEHISDSI
Kd [1, 4]: 0.198 nM | Kd [2, 4]: 0.34 nM | Kd [3, 4]: 163 nM

ALKAYFTAKI
Kd [1, 4]: 194 nM | Kd [2, 4]: 77 nM | Kd [3, 4]: 2780 nM

ALLFLMSFTI
Kd [1, 5]: 0.365 nM | Kd [2, 5]: 199 nM | Kd [3, 5]: 14.4 nM

CAVIPFDDI
Kd [1, 4]: 15800 nM | Kd [2, 4]: ≥ 10000 nM | Kd [3, 4]: 1160 nM

CIVAAVIIM
Kd [1, 4]: 14300 nM | Kd [2, 4]: 1420 nM | Kd [3, 4]: ≥ 32600 nM

CTNDIYCDEI
Kd [1, 4]: 2460 nM | Kd [2, 4]: 5720 nM | Kd [3, 4]: 4760 nM

DAKRNSKSL
Kd [1, 4]: 13700 nM | Kd [2, 4]: ≥ 49700 nM | Kd [3, 4]: ≥ 77100 nM

DAMIHKTYI
Kd [1, 4]: 5420 nM | Kd [2, 4]: 1520 nM | Kd [3, 4]: 9570 nM

DTIAHINTL
Kd [1, 4]: 747 nM | Kd [2, 4]: 233 nM | Kd [3, 4]: 11200 nM

DVEKEKFVAT
Kd [1, 4]: ≥ 37500 nM | Kd [2, 4]: ≥ 54800 nM | Kd [3, 4]: ≥ 69200 nM

DVSLSAYII
Kd [1, 4]: 691 nM | Kd [2, 4]: 755 nM | Kd [3, 4]: 4380 nM

EIVSHLRAST
Kd [1, 4]: 5150 nM | Kd [2, 4]: 2810 nM | Kd [3, 4]: 12600 nM

ELSRLRYNL
Kd [1, 4]: 0.93 nM | Kd [2, 4]: 254 nM | Kd [3, 4]: 18600 nM

ELTSNCTRTT
Kd [1, 4]: 14600 nM | Kd [2, 4]: 1470 nM | Kd [3, 4]: 5720 nM

ELWARISSSL
Kd [1, 4]: 175 nM | Kd [2, 4]: 324 nM | Kd [3, 4]: 9290 nM

EMKYALINLV
Kd [1, 4]: 1260 nM | Kd [2, 4]: 283 nM | Kd [3, 4]: 9830 nM

FIPIIYSKA
Kd [1, 4]: 0.555 nM | Kd [2, 4]: 1.81 nM | Kd [3, 4]: 94.6 nM

FLFLAWIMLL
Kd [1, 5]: 18.6 nM | Kd [2, 5]: 55.7 nM | Kd [3, 5]: 1010 nM

FLLNKEMYL
Kd [1, 5]: 0.329 nM | Kd [2, 5]: 1.13 nM | Kd [3, 5]: 1.6 nM

FLTSLLILV
Kd [1, 5]: 2.17 nM | Kd [2, 5]: 12 nM | Kd [3, 5]: 3.31 nM

FQDGVFHTM
Kd [3, 6]: 13.8 nM

FVLALYSPPL
Kd [1, 4]: 2.19 nM | Kd [2, 4]: 38.4 nM | Kd [3, 4]: 212 nM

GLFGKGSLI
Kd ([2]; source organism: Dengue virus 1 Nauru/West Pac/1974): 13 nM

GLFKTNTGTI
Kd [2, 7]: 45.8 nM

GLILFVLAL
Kd [1, 4]: 129 nM | Kd [2, 4]: 452 nM | Kd [3, 4]: 7800 nM

GLSSRATWA
Kd [2, 8]: 36.9 nM

GMVTLYLGV
Kd [2, 6]: 12.4 nM

HNASDFYGL
Kd [1, 9]: 6510 nM | Kd [2, 9]: ≥ 78100 nM | Kd [3, 9]: ≥ 21700 nM

IAMLKSKNI
Kd [1, 4]: ≥ 37700 nM | Kd [2, 4]: 846 nM | Kd [3, 4]: 10600 nM

IAVSVYGAIT
Kd [1, 4]: 7890 nM | Kd [2, 4]: 9240 nM | Kd [3, 4]: 14400 nM

ILSLETVKM
Kd [1, 4]: 4.77 nM | Kd [2, 4]: 11.8 nM | Kd [3, 4]: 280 nM

IMAFILGII
Kd [1, 4]: 17 nM | Kd [2, 4]: 29.8 nM | Kd [3, 4]: 175 nM

IMKDGRVLVV
Kd ([2]; source organism: Dengue virus 2 16681-PDK53): 6.09 nM

ITMTTVYHI
Kd [1, 5]: 19.2 nM | Kd [2, 5]: 7.21 nM | Kd [3, 5]: 2.31 nM

IVNCLSLSNL
Kd [1, 4]: 338 nM | Kd [2, 4]: 128 nM | Kd [3, 4]: 1280 nM

IVPEFAKQYV
Kd [1, 4]: 10.3 nM | Kd [2, 4]: 18.3 nM | Kd [3, 4]: 15 nM

KLFKRERDAI
Kd [1, 4]: 92.5 nM | Kd [2, 4]: 120 nM | Kd [3, 4]: 14200 nM

KLYGYASLT
Kd [1, 4]: 75.8 nM | Kd [2, 4]: 21.5 nM | Kd [3, 4]: 1990 nM

KQIANELNYI
Kd [3, 10]: 32.5 nM

KTLTGEIGAV
Kd [3, 8]: 30.7 nM

LAISAVYFKA
Kd [1, 4]: 1430 nM | Kd [2, 4]: 363 nM | Kd [3, 4]: 659 nM

LLLSICLGSL
Kd [1, 5]: 20.1 nM | Kd [2, 5]: 104 nM | Kd [3, 5]: 258 nM

LLMLVTPSMT
Kd [2, 10]: 169 nM

LQDIVNEHDI
Kd [1, 4]: 7630 nM | Kd [2, 4]: ≥ 38200 nM | Kd [3, 4]: 10900 nM

LQWDDNIPEL
Kd [1, 4]: 180 nM | Kd [2, 4]: 712 nM | Kd [3, 4]: 34.4 nM

LQWIASAIV
Kd [3, 10]: 3.72 nM

LTHFNNNENV
Kd [1, 4]: 907 nM | Kd [2, 4]: 7270 nM | Kd [3, 4]: 996 nM

MAAAKTPVI
Kd [1, 4]: 259 nM | Kd [2, 4]: 209 nM | Kd [3, 4]: 672 nM

MAILCVPNAV
Kd [3, 7]: 5.35 nM

MTSTRTIILV
Kd [1, 4]: 1980 nM | Kd [2, 4]: 920 nM | Kd [3, 4]: 217 nM

MVTDKTAYI
Kd [1, 4]: 16.8 nM | Kd [2, 4]: 1.99 nM | Kd [3, 4]: 25.2 nM

NASKTINAL
Kd [1, 4]: 117 nM | Kd [2, 4]: 708 nM | Kd [3, 4]: 6100 nM

NISFKSINKV
Kd [1, 4]: ≥ 20300 nM | Kd [2, 4]: 1530 nM | Kd [3, 4]: 11700 nM

NLERETGLSA
Kd [1, 4]: 17600 nM | Kd [2, 4]: 1660 nM | Kd [3, 4]: 15100 nM

NVISKIYTL
Kd [1, 4]: 147 nM | Kd [2, 4]: 96.7 nM | Kd [3, 4]: 1.75 nM

NVTGFMEEEI
Kd [1, 4]: 10300 nM | Kd [2, 4]: 5140 nM | Kd [3, 4]: 17700 nM

PLNEGIMAI
Kd [2, 6]: 63.8 nM
